Measurements: publication PMC12724383

What was measured:
Settings in all cases: 50 mM HEPES, 150 mM NaCl, 10% glycerol (pH not given for the reactions; protein storage buffer pH 7.5), room temperature, 15 min (EMSA) or 40 min …
[1] = test system: T1, DbuR (Pseudomonas putida), ORF:fe707e5d; experiment: DNase I footprinting
T1 sequence: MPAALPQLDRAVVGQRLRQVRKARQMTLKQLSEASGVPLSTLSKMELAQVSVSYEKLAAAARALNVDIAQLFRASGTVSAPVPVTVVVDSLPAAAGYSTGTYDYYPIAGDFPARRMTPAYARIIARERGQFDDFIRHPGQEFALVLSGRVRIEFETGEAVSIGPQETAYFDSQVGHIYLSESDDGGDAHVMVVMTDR

[2] = test system: T1, DbuR (Pseudomonas putida), ORF:fe707e5d; experiment: EMSA
[3] = test system: T1, DbuR (Pseudomonas putida), ORF:fe707e5d; experiment: competition EMSA

## TCAGGGATCTCGGCATGCGGCGGTGGTCGGGCATCTTACCTTGGACCCTTGCGCATTTCTAAATTCTCATATATTAGAATTCTCATAAATGATAATTGCCTGGCAGGAGCGTGCATGACCCCGACCTACGACA (double strand) [Pdbu 133 bp, 5'-FAM/5'-HEX]
[1]
  binding: binds

## TCAGGGATCTCGGCATGCGGCGGTGGTCGGGCATCTTACCTTGGACCCTTGCGCATTTCTAAATTCTCATATATTAGAATTCTCATAAATGATAATTGCCTGGCAGGAGCGTGCATGACCCCGACCTACGACA (double strand) [Pdbu 133 bp, 5'-FAM]
[2]
  binding: binds

## TCAGGGATCTCGGCATGCGGCGGTGGTCGGGCATCTTACCTTGGACCCTTGCGCATTTCTAAATTCTCATATATTAGAATTCTCATAAATGATAATTGCCTGGCAGGAGCGTGCATGACCCCGACCTACGACA (double strand) [Pdbu 133 bp, unlabeled]
[3]
  binding: binds
